Experimental data taken from IntAct's records for PubMed 17588514.

B1: Replication restart protein PriB (Escherichia coli (strain K12)), P07013 (parent)
chain: MTNRLVLSGTVCRAPLRKVSPSGIPHCQFVLEHRSVQEEAGFHRQAWCQMPVIVSGHENQAITHSITVGSRITVQGFISCHKAKNGLSKMVLHAEQIELIDSGD
partner: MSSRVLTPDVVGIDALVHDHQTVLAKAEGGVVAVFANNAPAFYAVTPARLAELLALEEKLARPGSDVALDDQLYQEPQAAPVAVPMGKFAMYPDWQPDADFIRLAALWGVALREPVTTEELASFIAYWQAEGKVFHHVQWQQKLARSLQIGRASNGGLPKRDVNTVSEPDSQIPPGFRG

Variants of: B1
Conditions: with dnat_ecoli dnaT

Variant | effect of a mutation on the interaction
Q45A | increasing interaction
W47A;K82A | decreasing interaction
